In article PMC7379371:

Legend:
[1] = target: chimeric antibody I3.1 Fab (human); experiment: BLI; fortéBIO BLItz; Fab (0.2 mg/mL) immobilised on Anti-Human Fab-CH1 second generation biosensors; gp120 core in solution at three or more concentrations (9.6 to 110 μM); 10 mM Tris, pH 7.5, 100 mM NaCl; global fit of at least three measurements
[2] = target: chimeric antibody I3.1 Fab (human); experiment: BLI; […]; Fab (0.2 mg/mL) […] (9.6 to 110 μM); 10 mM Tris, pH 7.5, 100 mM NaCl; […]

Chain of chimeric antibody I3.1 Fab (human) (heavy, as listed by the source, chain 1 of 2): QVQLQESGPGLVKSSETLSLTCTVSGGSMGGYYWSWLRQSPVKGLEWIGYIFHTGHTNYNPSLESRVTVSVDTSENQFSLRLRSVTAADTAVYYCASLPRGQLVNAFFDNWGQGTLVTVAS
Chain of chimeric antibody I3.1 Fab (human) (light, as listed by the source, chain 2 of 2): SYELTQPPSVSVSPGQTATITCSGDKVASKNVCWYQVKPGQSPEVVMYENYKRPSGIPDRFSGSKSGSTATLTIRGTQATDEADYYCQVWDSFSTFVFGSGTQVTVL

Substance | Kd [1] | Kd [2]
92UG037.8 gp120 core WT (domain or fragment) | 3280 nM | 
CH505 T/F gp120 core WT (domain or fragment) |  | 1980 nM
